In the supplement of paper PMC12764529:
± gives the half width of the 95% confidence interval.

Key:
[1] = folding stability dG unfold from trypsin proteolysis; higher = more stable
Procedure: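 Folding stability of de novo designed mini-proteins (<80 aa, no Cys; designed by TrROS, TrMRF, ProteinMPNN and the joint model) was measured by cDNA display proteolysis with trypsin and chymotrypsin. Each protease was used at 11 concentrations in a threefold dilution series plus a no-protease condition. K50 was inferred by Bayesian fitting of sequencing counts, and dG unfold was derived against a sequence-predicted unfolded-state K50 (Tsuboyama et al. method). Sequences shown include variable-length N-terminal GS-type padding (SAGGSAGG...) inside a display construct carrying a PA tag. Rows were kept only if the AF2 dimer inter-PAE was >15, to exclude likely homo-oligomers.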

[2] = folding stability dG unfold from chymotrypsin proteolysis; higher = more stable
Procedure, shortened: (§1)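 Designed mini-proteins (under 80 residues, no cysteine) in a PA-tagged cDNA display construct were digested with trypsin and chymotrypsin. Each protease was used at 11 concentrations (threefold dilutions) plus a no-protease condition, followed by sequencing. K50 was inferred by Bayesian fitting of sequencing counts, and unfolding free energy was derived against a sequence-predicted unfolded-state K50 and a shared folded-state K50, per protease or combined. Only designs with AlphaFold2 dimer inter-PAE above 15 were kept.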

[3] = folding stability dG unfold (combined trypsin and chymotrypsin); higher = more stable
Procedure, shortened: as §1

Sequence | folding stability dG unfold [1] [kcal/mol] | folding stability dG unfold [2] [kcal/mol] | folding stability dG unfold [3] [kcal/mol]
GLVDEDGKEVFPEVPLVIELDVPENLPDGKKLSPEEVEKLVKGLAEKLKKEYNVKKVEAERKGNKVLILVGS [r1_369_TrMRF] | 0.688 ± 0.058 | 0.519 ± 0.15 | 0.706 ± 0.1
GMNLKETTVTIPLKVKSEEEAKKKAEEIANELKKKYPDIIEIKIEIKEIDKETGIVIITIKFKAKNSSVLLS [r1_52_JUSTAS] | 2.18 ± 0.33 | 1.27 ± 0.14 | 2 ± 0.55
GSAGVMFGSREDIEALAAALGPDVAPTDVTYDPSGYYYYTIPLPDGTPTSLTIPPDKYSPEEVAALARRLTS [r1_279_JUSTAS] | -0.346 ± 0.56 | 0.703 ± 0.15 | 0.481 ± 0.14
GSMTIPVVLPPGVRLPLSELWAIAKQYGGKLTATVYDPETGTSTSVTFPGGQLGDSTMAPGERTVNVTVVGS [r1_238_JUSTAS] | 0.527 ± 0.031 | 0.825 ± 0.09 | 0.759 ± 0.076
GSNAVEVTLEVEVTITDPKTPDNKTTTVTIPLTVKLPPSVTSLEELEALARERAEAVAAELGGTVVTVTPVS [r1_300_JUSTAS] | 2.61 ± 0.098 | 2.42 ± 0.067 | 2.49 ± 0.089
GSVTIELVVPKGVDIPLALLAGIASTGKGKVTARISNPLSGKEIEVTFPGGGLGEAGVTEGINVVRLTVYGS [r1_238_TrMRF] | 0.869 ± 0.1 | 1.29 ± 0.11 | 1.2 ± 0.19
GYTITSEVEEFEDPNSDAKYTKVTIPVVDGDPEVAREAAEEIAKERFGPGATLDIKYDPETGTVTATFTVAS [r1_273_JUSTAS] | 0.511 ± 0.026 | 0.379 ± 0.1 | 0.563 ± 0.081
ITIRIPPNGNIRIEMIDPNGKWWTYTFPVKDPEENLQRLKDIIRDFFPGFEDVDVKITEVEDGWVTITVPLS [r1_389_TrROS] | 4.05 ± 0.17 | 4.96 ± 0.23 | 4.76 ± 0.21
KIEIVEIKKENGKITIKVKNPIPNAKLIIYLFNPKGEIVSAKTHPGPEVELEIEVPENESFSVLVKLFPPKS [r1_382_TrMRF] | 3.35 ± 0.12 | 4.24 ± 0.083 | 3.99 ± 0.14
KIKIEPGETVRIKVKVKLPDGEEKEIEIELSLEELEKKLGRPLTPEEILNLIKEEAEKKGFEVEEVEIEKES [r1_338_TrROS_Hall] | 0.391 ± 0.12 | 1.38 ± 0.12 | 0.961 ± 0.36
KIPITIEEDPEDKMYELRVPDGMPIQIQRSKDGYRVSIWNPDNGKPREIPITKKDLKDLLSNPGFWIEIYKS [r1_18_TrROS] | 1.64 ± 0.062 | 1.56 ± 0.078 | 1.77 ± 0.11
KIVILEPGEEAELPGVKVIPVDGLRIREVEVNGKKILVIEMSEEEIENGNEEELEKLRELAEELGADEVILS [r1_438_TrROS_Hall] | 1.13 ± 0.072 | 1.27 ± 0.062 | 1.14 ± 0.26
KKIHIMFNNPQHVRRIAKKLGPNVKPDDVKKNPNGYYYFEIDLPNGRPIDIHIPSENMPAEDIVDYALEMLS [r1_279_TrROS] | 0.88 ± 0.02 | 0.86 ± 0.089 | 0.894 ± 0.058
KKKILIFITGDNPELAERIRKELEELGYDVEVKVVTTPEEMEKAIEEAEKTDIVIVIHLPPALPLSPELAFS [r1_497_TrMRF] | 2.58 ± 0.13 | 0.709 ± 0.12 | 1.9 ± 0.19
KMEIKIEVEKVKDEETGEEYIEVKIVVKKENVEEALEKVKKILEEEFNYEIVDVKVEKKDDYVVITVKIRLS [r1_337_TrROS_Hall] | 3.15 ± 0.22 | 2.21 ± 0.41 | 2.89 ± 0.53
KSKEEQKEQQEEQQKPPPVEIKVEVEVVKSPNGNPYFQFNVEYYDPGDGEPIGEITISVPPDDVDELADEFS [r1_415_TrROS] | 1.97 ± 0.4 | 2.63 ± 0.25 | 2.46 ± 0.71
KTISSDELLELLGVSKSELKKLPLEAIVDEVKKALPPGVAVSAKAEPIPENPSYTIVVELKNGEPVTITLDS [r1_340_TrMRF] | 1.06 ± 0.041 | 1 ± 0.026 | 0.964 ± 0.12
KTLVIHAKTPEEILAAIKEAIKEGKTVVIEMSPELIEALKEAGFEIEKIEEVEEIDGKKIYRVVIEVKPKES [r1_173_TrROS_Hall] | 1.66 ± 0.084 | 3.36 ± 0.058 | 2.87 ± 0.2
KTVMIMFKNPEQILNQLREARDDGKTVSIMFPDEWINELKNLGFKIDKITDVQPMPGNDSYMVEIKIKPKDS [r1_173_TrROS] | 1.29 ± 0.12 | 2.31 ± 0.12 | 1.95 ± 0.2
MEELEKLPGIKVEPIREEDGRLYLRVTFTDEVAKALGKPPVTVLIEVEPGEELELSPELRELLRKLGIEVVS [r1_256_TrROS_Hall] | 2.6 ± 0.061 | 4.34 ± 0.11 | 3.86 ± 0.12

Sequence | folding stability dG unfold [1] [kcal/mol] | folding stability dG unfold [2] [kcal/mol] | folding stability dG unfold [3] [kcal/mol]
MEIIKKLKIPDYEIVSVKTKKIGNKVIVVVVLKKEKEYYVIVAEINPETKEIKIISIKKLKENETLEDFISS [r1_383_TrMRF] | 3.2 ± 0.26 | 3.95 ± 0.11 | 3.76 ± 0.32
MEIKKIELKVEEKDGKLVLTVKIEVFDKNGKLVKKVEIKLEVPKELKEGQSLEELPLSEELRKLVKELLEKS [r1_354_TrROS_Hall] | 3.11 ± 0.26 | 3.79 ± 0.34 | 3.54 ± 0.7
MEKVLILAKIKLKGPDGEEAEIDFAVEISPEEATPELLKKVREEAEEIAEALKEKGYEVELEVEVVKLGEES [r1_221_TrMRF] | 3.62 ± 0.48 | 2.88 ± 0.24 | 3.25 ± 0.65
MEPPPVVVLEIEIEVPAEDEELRNMTAEELAARLAEELEALPGLKVVSVEVVEVEERPDGTLRVRIRVTIES [r1_484_TrROS_Hall] | 3.69 ± 0.47 | 2.32 ± 0.14 | 3.57 ± 0.79
MKETVTVDITVVVEDENGKKHLVRVKVTVEKLPDGTYRVTIEVENLETGKTETIEIEVKGAEFKPGDVIEIS [r1_14_TrROS_Hall] | 3.21 ± 0.15 | 2.56 ± 0.15 | 2.87 ± 0.12
MKIKEVKVFPLPGENTIVILVTGEFDSFYIPETGKPIPSSAKITLIEVIKVPEDSDEAEVESSLLILPDAES [r1_147_TrMRF] | 1.08 ± 0.067 | 1.46 ± 0.067 | 1.4 ± 0.16
MKPGETKTLTLTIVDEETGETYTVKVTVTYDEDTGVVTIKAEITYPDGRKFTVTARFNRETGELTEISIEPS [r1_144_TrROS_Hall] | 3.96 ± 0.087 | 4.44 ± 0.075 | 4.32 ± 0.098
MMTKEEIEKLAEELAKELEKKGYKIVKVEIEEVKPGEVKIKVDGKEITITLKDGRKLRIKVEVKKLPKEELS [r1_31_TrROS_Hall] | 1.97 ± 0.053 | 3.63 ± 0.11 | 3.04 ± 0.11
MNIPLKEILDKAKAEGKPVVFPDGTKTLSFEPGGKATIEKPVEVPGKPGVPLETKTYTIDINEDGSVTVNDS [r1_284_JUSTAS] | -0.875 ± 0.17 | -0.279 ± 0.15 | -0.373 ± 0.095
MNLSDPVSVAKLKKALEEIKKAIEELKKKGKKIEILAIELNDDSIKITPVTKSEEYIKKKKEEGIEIILLLS [r1_134_JUSTAS] | 1.52 ± 0.041 | 0.677 ± 0.37 | 1.38 ± 0.2
MNVTINITVLSPDSSGYTMKATVTFPETPVTTSKEYKTSDPVSAVEEIIKELVDEENLSNATVTTYPSSRLS [r1_399_JUSTAS] | -0.562 ± 0.22 | 0.377 ± 0.35 | 0.0431 ± 0.19
MPDISRAEIKALAEKLGLPVPDGTITIKFTYGDKTITVPVDAKKDITLGDIVEAIKKKNPNIKKIEIVAEPS [r1_135_TrMRF] | 0.956 ± 0.044 | 0.808 ± 0.08 | 0.907 ± 0.077
MRITLEHPDIKRLTIEFRPMPDGYFRMDIKVERPDGKPVPIPFPMRYEDGKMTPEMMEQMIDEAVEEALADS [r1_124_TrROS] | 0.608 ± 0.077 | 0.617 ± 0.2 | 0.689 ± 0.21
MRLYLVKVEIRREEVDPETGEVREEKLELTVLVREEDEEALEKAEELARKLAEEEGIKEVKVEVVELPAEES [r1_346_TrROS_Hall] | 2.3 ± 0.09 | 2.62 ± 0.079 | 2.47 ± 0.25
MTKKTVTLPIPEPIRAAIEAGKPLPLEEIVDLVRDVVAKELGFKDVKVLSVEIKPLPNGEIVVEVTVEFPES [r1_290_TrMRF] | 3.09 ± 0.28 | 2.79 ± 0.16 | 2.89 ± 0.23
MTLLIPLPPAFPDLTPEQVLDLLRELFLSPDEEATAEENPETGSVTVTVRRGDEEYVFTFYPDGYLVLEPGS [r1_131_TrMRF] | 2.85 ± 0.04 | 2.799 ± 0.016 | 2.83 ± 0.04
MTVTVPPDGTVTITLTDPSGNTYTFTIPVTDPAELRARLEEAIRELFPEFEDIPVRVVAVDGPAVVVEVPLS [r1_389_JUSTAS] | 3.02 ± 0.12 | 3.12 ± 0.036 | 3.1 ± 0.086
MVAVFEFTFKSEEELLEAAEEVARRLAAELGLPEEELEKIPIEVEVEEIGNEDGEKEYKLTIRFGFPEEFLS [r1_81_TrMRF] | 3.51 ± 0.13 | 3.92 ± 0.05 | 3.83 ± 0.13
MVLDAGISRKDFINNKPIKVETALKKLAEILGGPNFKPKVKPSKKDYLVAVIELPDGRKLLLKDDKDIKISS [r1_168_TrMRF] | 0.514 ± 0.12 | -0.108 ± 0.14 | 0.377 ± 0.14
MVLKVTIEITVTHPANPGKTEKLTIVVEAPTLEEALAAALEEIRRRLGLPPGAKVTVKVTVELVELPEEDLS [r1_149_TrROS_Hall] | 4.5 ± 0.18 | 5.63 ± 0.18 | 5.99 ± 0.5
